For one substance, hydrolysis of microcrystalline cellulose (soluble reducing sugars), fold over native cellulosome and hydrolysis of pre-treated switchgrass (soluble reducing sugars), fold over native cellulosome results are on record in patent publication US20140335573A1.

This experiment deals with native C. thermocellum cellulosome (purified from culture media of C. thermocellum ATCC 27405) (Clostridium thermocellum) (UniProt Q06851). As to the kind of experiment: cell-based or functional assay.
UniProt Q06851, sequence (Q06851 whole entry): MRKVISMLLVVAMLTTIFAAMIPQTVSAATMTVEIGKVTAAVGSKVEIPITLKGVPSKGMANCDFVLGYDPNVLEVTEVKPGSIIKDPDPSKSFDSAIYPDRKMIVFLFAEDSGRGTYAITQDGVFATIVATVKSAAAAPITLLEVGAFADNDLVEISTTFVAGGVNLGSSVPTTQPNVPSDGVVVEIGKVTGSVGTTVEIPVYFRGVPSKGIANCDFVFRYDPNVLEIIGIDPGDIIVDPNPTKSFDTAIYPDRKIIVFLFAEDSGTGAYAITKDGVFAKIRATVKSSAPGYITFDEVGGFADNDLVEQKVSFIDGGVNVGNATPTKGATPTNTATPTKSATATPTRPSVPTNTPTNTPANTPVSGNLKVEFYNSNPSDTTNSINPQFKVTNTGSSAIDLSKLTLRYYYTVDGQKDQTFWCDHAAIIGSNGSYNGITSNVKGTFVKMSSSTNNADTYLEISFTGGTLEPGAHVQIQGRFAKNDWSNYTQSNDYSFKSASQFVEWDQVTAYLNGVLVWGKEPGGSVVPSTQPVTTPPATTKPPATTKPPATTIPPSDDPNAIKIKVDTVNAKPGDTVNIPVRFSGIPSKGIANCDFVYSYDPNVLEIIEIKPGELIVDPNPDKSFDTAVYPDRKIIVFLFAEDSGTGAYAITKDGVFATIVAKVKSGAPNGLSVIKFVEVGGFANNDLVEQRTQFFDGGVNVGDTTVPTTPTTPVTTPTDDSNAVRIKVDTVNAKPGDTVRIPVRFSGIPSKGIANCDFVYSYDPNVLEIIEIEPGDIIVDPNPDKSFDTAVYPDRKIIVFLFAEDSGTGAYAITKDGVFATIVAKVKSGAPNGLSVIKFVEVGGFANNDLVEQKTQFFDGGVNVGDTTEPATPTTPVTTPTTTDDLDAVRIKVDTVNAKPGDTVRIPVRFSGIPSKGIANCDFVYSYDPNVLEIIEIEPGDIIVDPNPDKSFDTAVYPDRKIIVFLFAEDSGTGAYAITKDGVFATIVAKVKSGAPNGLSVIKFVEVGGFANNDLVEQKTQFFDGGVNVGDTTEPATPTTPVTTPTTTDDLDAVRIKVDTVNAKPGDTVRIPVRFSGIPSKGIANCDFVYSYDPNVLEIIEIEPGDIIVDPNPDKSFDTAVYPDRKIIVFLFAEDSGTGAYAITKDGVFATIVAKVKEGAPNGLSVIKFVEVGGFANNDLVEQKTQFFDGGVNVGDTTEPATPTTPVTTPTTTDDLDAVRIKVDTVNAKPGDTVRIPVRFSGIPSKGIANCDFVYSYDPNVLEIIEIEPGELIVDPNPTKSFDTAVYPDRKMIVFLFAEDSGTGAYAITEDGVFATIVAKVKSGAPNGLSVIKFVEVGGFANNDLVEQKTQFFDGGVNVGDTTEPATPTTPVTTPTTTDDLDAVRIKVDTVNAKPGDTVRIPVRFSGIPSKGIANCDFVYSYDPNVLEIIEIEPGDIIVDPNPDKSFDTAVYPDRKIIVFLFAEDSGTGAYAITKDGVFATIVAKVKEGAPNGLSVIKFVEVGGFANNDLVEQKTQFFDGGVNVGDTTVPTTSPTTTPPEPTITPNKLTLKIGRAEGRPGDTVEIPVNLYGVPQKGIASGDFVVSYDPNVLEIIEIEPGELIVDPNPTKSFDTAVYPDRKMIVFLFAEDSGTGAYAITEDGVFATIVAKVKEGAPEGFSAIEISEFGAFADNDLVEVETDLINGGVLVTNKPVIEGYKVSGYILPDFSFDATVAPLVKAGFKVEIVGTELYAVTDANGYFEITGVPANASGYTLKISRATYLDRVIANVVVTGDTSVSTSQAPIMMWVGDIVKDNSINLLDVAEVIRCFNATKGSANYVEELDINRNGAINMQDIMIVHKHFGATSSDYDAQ

Regarding “BglA-CohII (C. thermocellum beta-glucosidase A fused to the type-II cohesin module of Orf2p) (enzyme)”, the hydrolysis of microcrystalline cellulose (soluble reducing sugars), fold over native cellulosome stood at 2.68 fold and the hydrolysis of pre-treated switchgrass (soluble reducing sugars), fold over native cellulosome turned out to be 1.86 fold.
